Experimental data published in patent US20080249008A1 (published 2008).

B1: EGF mutant clone 30 (soluble) (ligand)
chain: SSNSGCPLSHDGYCLHDGVCMYIEALDRYACNCVVGYAGERCQYRDLKWWELR
notes: Produced solubly
B2: EGF mutant clone 121 (competitor on NR6 cells) (ligand)
chain: NSDPKCPLSHEGYCLNDGVCMYIGTLDRYACNCVVGYVGERCQYRDLKWLALR

Experiments:
[1] = molecular target: T1, EGFR on NR6 fibroblast cells (UniProt P00533 25-1210, limits assumed); assay: competition with Alexa-488 labeled wt EGF on NR6 fibroblast cells, flow cytometry, 2 hr at 4 C
T1 construct: whole, on cells; also called fibroblast cells expressing EGFR; NR6 fibroblasts
Method: (§1) Fluorescence intensity of cell surface labeling was measured by flow cytometry.

[2] = molecular target: T1, EGFR on NR6 fibroblast cells; assay: competition for binding to fibroblast cells, flow cytometry
Method: as §1

| Binder | Kd [1] | IC50 [2] |
| --- | --- | --- |
| B1 | 0.56 nM |  |
| B2 |  | 0.14 nM |
